Measured values as given in US6949244.

Experiments:
[1] = biological target: murine monoclonal anti-HMFG antibody MC-10 (BrE-1); experiment: RIA: plate coated with 100 ng 11D10, 125I-BrE-1 bound
BrE-3 [2] = experiment: RIA: plate coated with 100 ng 11D10, 125I-BrE-3 bound
[3] = biological target: murine monoclonal anti-HMFG antibody MC-10 (BrE-1); experiment: RIA: plate coated with 300 ng 11D10, 125I-BrE-1 bound
BrE-3 [4] = experiment: RIA: plate coated with 300 ng 11D10, 125I-BrE-3 bound
[5] = biological target: murine monoclonal anti-HMFG antibody MC-10 (BrE-1); experiment: RIA: plate coated with 1000 ng 11D10, 125I-BrE-1 bound
BrE-3 [6] = experiment: RIA: plate coated with 1000 ng 11D10, 125I-BrE-3 bound
[7] = biological target: murine monoclonal anti-HMFG antibody MC-10 (BrE-1); experiment: RIA: 125I-11D10 bound to BrE-1 coated plate, no inhibitor
[8] = biological target: murine monoclonal anti-HMFG antibody MC-10 (BrE-1); experiment: competition RIA: 125I-11D10 on BrE-1 coated plate, 0.250 µg unlabeled 11D10
[9] = biological target: murine monoclonal anti-HMFG antibody MC-10 (BrE-1); experiment: competition RIA: 250 ng 11D10 mixed with labeled BrE-1, binding to MCF-7 / SKBR3 cell monolayers

monoclonal anti-idiotype antibody 11D10
cpm [1]: 6150 cpm | cpm (BrE-3 [2]): 263 cpm | cpm [3]: 16700 cpm | cpm (BrE-3 [4]): 260 cpm | cpm [5]: 44200 cpm | cpm (BrE-3 [6]): 374 cpm | cpm Bound [7]: 37100 cpm | % inhibition [8]: 95% | cpm Bound [8]: 1850 cpm | % inhibition [9]: > 90%
